Test results from patent publication US20230250157A1 (published 2023).

How the values were obtained:
Test in all cases: ELISA
BM4831 RBD = molecular target: BM4831 RBD
Khosta2 RBD = molecular target: Khosta2 RBD
Yun11 RBD = molecular target: Yun11 RBD
RsSTT200 RBD = molecular target: RsSTT200 RBD
BtKY72 RBD = molecular target: BtKY72 RBD
SHC014 RBD = molecular target: SHC014 RBD
C028 RBD = molecular target: C028 RBD
RaTG13 RBD = molecular target: RaTG13 RBD
Pang17 RBD = molecular target: Pang17 RBD
RmYN02 RBD = molecular target: RmYN02 RBD
Rs4081 RBD = molecular target: Rs4081 RBD
Rf1 RBD = molecular target: Rf1 RBD
LyRa3 RBD = molecular target: LyRa3 RBD

Measured: EC50

B1: HSW-1 (antibody, V domains shown)
VH: QVQLQQPGAELVKPGTSMKLSCKASGYTFTSYWMHWVKQRPGQGLEWIGMIHPNSGSTKYNENFKSKATLTVDKSSSTAYMQFSSLTSEDSAVYYCVRSGSYYGTTYDYFDYWGQGTTLTVSS
VL: DIVLTQSPASLAVSLGQRATISCRASESVNIYGNSFMHWYQQKPGQPPKLLIFRASNLESGIPVRFSGSGSRTDFTLTINPVEADDVATYYCHQSNEDPFTFGSGTKLEIK
> 10 µg/mL: BM4831 RBD | Khosta2 RBD | Yun11 RBD

B2: M8a-7 (antibody, V domains shown)
VH: QAYLQQSGAEMVRPGASVKMSCKASGYTFNNYNMHWVKQTPSQGLEWIGGFYPGNDDTAYSQKFKGKATLTVDKSSSTAFMHLSSLTSEDSAVYFCARSLGRYYAMDYWGQGTSVTVSS
VL: not shown
not listed: LyRa3 RBD
> 10 µg/mL: all other assays above

B3: M8a-6 (antibody, V domains shown)
VH: QVQLQQPGTELVMPGASVKLSCKTSGYTFTHYWMHWVKQRPGEGLEWIGEIAPSDNYVKYNQKFKGKSTLSVDRSSSTAYMQLSSLTSEDSAVYFCARPDNSGYPVYFDYWGQGTSLTVSS
VL: DIVMTQSQKFMSTSLGDRVSISCKASQDVGTTVAWYQQKPGQSPKLLIYWASTRHTGVPDRFTGTGSGTDYTLTISSVAAEDLALYYCQQHYNTPYTFGGGTKLEIE
> 10 µg/mL: BtKY72 RBD | LyRa3 RBD | BM4831 RBD | Khosta2 RBD | Rs4081 RBD

B4: M8a-25 (antibody, V domains shown)
VH: EVQLQQSVAELVRPGASVKLSCTASGFNIKNTYMHWVKQRPEQGLEWIGRIDPSIDHTRYAPKFQGKAVITAFTSSNTAYLQLSSLTSEDTAIYYCAREGGGNYPYYYAIDYWGQGTSVTVSS
VL: DIQMTQSSSSFSVSLGDRVTITCKASEDIYIRLAWYQQRPGNAPRLLISNAISLETGVPSRFSGSGFGKDHTLSITSLQTEDVATYYCQQYWSTPWTFGGGTKLEIK
not listed: RmYN02 RBD | Rf1 RBD
> 10 µg/mL: all other assays above

B5: M8a-11 (antibody, V domains shown)
VH: EVQLQQSGPELVKPGASVKIPCKASGYTFTDYNMDWVKQSHEKSLEWIGEIDPNNGDTIYNQKFKGKASLTVDKSSSTAYMELRSLTSEDTAVYYCAKRGYYGSSLWWYFDVWGTGTTVTVSS
VL: DIQMTQSSSSFSVSLGDRVTITCKASEDIYIRLAWYQQRPGNAPRLLISNAISLETGVPSRFSGSGSGKDYTLSITSLQTEDVATYYCQQYWSTPWTFGGGTKLEIK
not listed: Yun11 RBD | RmYN02 RBD | Rs4081 RBD | Rf1 RBD
> 10 µg/mL: all other assays above

B6: M8a-29 (antibody, V domains shown)
VH: EVQLQQSVAELVRPGASVKLSCTASGFNIKNTYMHWVKQRPEQGLEWIGRIDPSIDHTRYAPKFQGKAVITAFTSSNTAYLQLSSLTSEDTAIYYCAREGGGNYPYYYAIDYWGQGTSVTVSS
VL: DIVMTQAAFSNPVTLGTSASISCRSTKSLLHSNGITYLYWYLQKPGQSPQLLIYQMSNLASGVPDRFSSSGSGTDFTLRISRVEAEDVGVYYCAQNLELPYTFGGGTKLEIK
not listed: Rs4081 RBD
> 10 µg/mL: all other assays above

B7: M8a-3 (antibody, V domains shown)
VH: QVQLQQPGAELVLPGASVKLSCKASGYTFTNYWMHWVKQRPGHGLEWIGEIDPFDTYIKINQKFKGKSTLTVDTSSSTAYMQLSSLTSEDSAVYYCARPDSSGYPVYFDYWGQGTTLTVSS
VL: DIVMTQSHKFMSTSVGDRVSITCKASQDVGTYIAWYQQKPGQSPKLLIYWASTRHTGVPDRFTGSGSGTNYTLTISSVQAEDLALYHCQQHYSTPYTFGGGTKLEIK
> 10 µg/mL: BM4831 RBD | Rf1 RBD

B8: M8a-30 (antibody, V domains shown)
VH: QVHLQQSGPELVKPGASVKISCKASGYGFSSSWMNWVKQRPGKGLEWIGRIYPGDGDTNYNDKFQGKATLTADRSSSTAYMHLTSLTSADSAVYFCARSLLYSFDYWGQGTTLTVSS
VL: DVVVTQTPLSLPVSFGDQVSISCRSSQSLAGSYGHTYLSWYLHKSGQSPQLLIYGISNRFSGVPDRFSGSGSGTDFTLKISTIKPEDLGMYYCLQGTHQPLTFGAGTKLELK
> 10 µg/mL: RsSTT200 RBD | C028 RBD | RaTG13 RBD | BM4831 RBD | Khosta2 RBD

B9: M8a-28 (antibody, V domains shown)
VH: QVQLQQPGAELVKPGASVKMSCKASGYNFNHYWISWVKQRPGQGLEWIGDIYPLSHFTTYNEKFTNRATLTVDTSSTTAYMQLNSLTSDDSAVFYCARWDYFDSRTFDYWGQGTTLTVSS
VL: DILLTQFPAILSVSPGERVSFSCRASQTIGTNIHWYQQRINGSPRLLIKYASESISGIPSRFSGSGSGTDFSLSINNVESEDIADYYCQQINSWPLTFGAGTKLDLK
> 10 µg/mL: Pang17 RBD | BM4831 RBD

B10: M8a-15 (antibody, V domains shown)
VH: QVQLQQSGPELARPGASVKLSCRASGYTVTSFGLSWMKQRTGQGLEWIGEIYPTSKNTYYNDKFRTKATLTADKSSSTAYMELRSLTSEDSAVYFCVLYDYFDYWGQGTTLTVSS
VL: QIVLTQSPAIMSASPGEKVTISCSASSSVSYMYWYQQKTGSSPKPWIYRTSNLASGVPVRFSGSGSGTSYSLTISSMEAEDAATYYCQQYQSYPRTFGGGTKLEIK
not listed: Yun11 RBD | RmYN02 RBD | Rf1 RBD
> 10 µg/mL: all other assays above
